Assay results reported in the Immune Epitope Database (IEDB).

Legend:
Settings in all cases: source organism: Cryptosporidium parvum Iowa II
HLA-A*26:01 = assay: IEDB peptide-MHC binding, purified MHC/direct/fluorescence; filed as Kd, often an IC50 or EC50 that approximates it; ≥ and ≤ were set here for values at or beyond the usual limits of such assays
HLA-B*15:01 = assay: as above
HLA-B*15:17 = assay: as above
HLA-B*39:01 = assay: as above
HLA-A*02:03 = assay: as above
HLA-A*02:19 = assay: as above
HLA-A*23:01 = assay: as above
HLA-A*02:01 = assay: as above
HLA-B*46:01 = assay: as above
HLA-B*57:01 = assay: as above
HLA-A*29:02 = assay: as above
HLA-B*44:02 = assay: IEDB peptide-MHC binding, purified MHC/competitive/fluorescence; filed as Kd, often an IC50 or EC50 that approximates it; ≥ and ≤ were set here for values at or beyond the usual limits of such assays
HLA-B*53:01 = assay: as above
HLA-A*01:01 = assay: as above
HLA-A*66:01 = assay: as above
HLA-B*40:01 = assay: as above
HLA-B*07:02 = assay: as above
HLA-B*14:02 = assay: as above
HLA-B*27:05 = assay: as above
HLA-B*08:01 = assay: as above
HLA-B*58:01 = assay: as above
HLA-A*30:02 = assay: as above
HLA-B*51:01 = assay: as above
HLA-A*30:01 = assay: as above
HLA-A*11:01 = assay: as above

## TVFRNQNRV
HLA-A*26:01
  Kd: ≥ 20 µM
HLA-B*15:01
  Kd: ≥ 20 µM
HLA-B*15:17
  Kd: ≥ 20 µM
HLA-B*39:01
  Kd: ≥ 20 µM
HLA-A*02:03
  Kd: ≥ 20 µM
HLA-A*02:19
  Kd: ≥ 20 µM
HLA-A*23:01
  Kd: ≥ 20 µM
HLA-A*02:01
  Kd: ≥ 20 µM
HLA-B*46:01
  Kd: ≥ 20 µM
HLA-B*57:01
  Kd: ≥ 20 µM
HLA-A*29:02
  Kd: ≥ 20 µM
HLA-B*44:02
  Kd: ≥ 5 µM
HLA-B*53:01
  Kd: ≥ 5 µM
HLA-A*01:01
  Kd: ≥ 5 µM
HLA-A*66:01
  Kd: ≥ 5 µM
HLA-B*40:01
  Kd: ≥ 5 µM
HLA-B*07:02
  Kd: ≥ 5 µM
HLA-B*14:02
  Kd: ≥ 5 µM
HLA-B*27:05
  Kd: ≥ 5 µM
HLA-B*08:01
  Kd: ≥ 5 µM
HLA-B*58:01
  Kd: ≥ 5 µM
HLA-A*30:02
  Kd: ≥ 5 µM
HLA-B*51:01
  Kd: ≥ 5 µM
HLA-A*30:01
  Kd: ≥ 5 µM
HLA-A*11:01
  Kd: ≥ 5 µM
